Measured values from PMC4975667.

Biological target: Human full-length BAX (1–192) wild type, recombinant (human) (UniProt Q07812)

Substance “Human full-length BAX (1–192) wild type, recombinant (from UniProt Q07812 1-192) (natural protein)” has a Kd of 32 µM.
